Experiments:
[1] = biological target: T1, rabbit-CD19-GPI anchor-FLAG-tag fusion polypeptide (on transfected CHO-S / HEK293F cells) (rabbit; human); assay: FACS, CHO-S transfected with CD19 expression plasmid, detection with anti-mIgG-APC
T1 sequence: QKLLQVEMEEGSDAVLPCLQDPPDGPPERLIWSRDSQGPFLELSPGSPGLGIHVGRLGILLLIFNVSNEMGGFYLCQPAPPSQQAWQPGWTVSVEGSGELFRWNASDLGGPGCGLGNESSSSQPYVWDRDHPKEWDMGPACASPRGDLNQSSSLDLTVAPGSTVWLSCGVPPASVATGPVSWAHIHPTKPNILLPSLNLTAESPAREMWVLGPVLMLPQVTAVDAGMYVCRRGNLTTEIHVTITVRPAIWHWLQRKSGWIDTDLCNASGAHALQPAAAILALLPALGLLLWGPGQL

[2] = biological target: T2, rabbit CD19 (native, on the surface of rabbit B-cells) (rabbit); assay: FACS, rabbit PBMC
T2 construct: Natural CD19 on rabbit PBMC / B-cells; also called rbCD19; native rabbit CD19
T2 chain: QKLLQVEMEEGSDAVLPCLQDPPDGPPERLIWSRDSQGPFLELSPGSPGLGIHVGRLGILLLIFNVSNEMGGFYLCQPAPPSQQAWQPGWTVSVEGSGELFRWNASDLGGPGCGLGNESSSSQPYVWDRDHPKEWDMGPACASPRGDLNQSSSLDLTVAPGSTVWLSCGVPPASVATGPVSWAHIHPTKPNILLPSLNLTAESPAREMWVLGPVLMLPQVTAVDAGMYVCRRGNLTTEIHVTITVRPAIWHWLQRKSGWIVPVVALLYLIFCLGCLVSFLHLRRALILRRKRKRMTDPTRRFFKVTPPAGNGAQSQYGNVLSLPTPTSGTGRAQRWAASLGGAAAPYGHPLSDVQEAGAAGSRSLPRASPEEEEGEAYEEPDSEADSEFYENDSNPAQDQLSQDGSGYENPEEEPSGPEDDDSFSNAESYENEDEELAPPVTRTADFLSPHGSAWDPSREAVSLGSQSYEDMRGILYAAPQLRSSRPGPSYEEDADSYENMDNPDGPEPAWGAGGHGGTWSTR
Experimental: FACS analysis was applied for screening of hybridomas and to identify those hybridomas that secrete antibodies against rabbit CD19. All IgG-producing hybridomas were screened by FACS analysis of rabbit peripheral blood mononuclear cells (PBMCs) double stained with a rabbit IgM binding antibody for B-cell identification.
Freshly isolated rabbit (PBMCs) were incubated with FITC labeled anti-rabbit IgM antibody (Southern Biotech) and IgG-positive hybridoma supernatants on ice. After 45 min. incubation the PBMCs were washed once with ice cold PBS and resuspended in an PE-labeled anti-mouse IgG antibody (Invitrogen) binding the murine IgG of the hybridoma supernatant. After another 45 min. incubation on ice the cells were washed again once with ice cold PBS. Finally, the PBMCs were resuspended in ice cold PBS and immediately subjected to the FACS analyses. DAPI-HCl in a concentration of 2 μg/ml (Cayman) was added prior to the FACS analyses to discriminate between dead and live cells. A Becton Dickinson FACS Canto II device equipped with a computer and the FACSDiva software (BD Biosciences) were used for the analysis.

[3] = biological target: T1, rabbit-CD19-GPI anchor-FLAG-tag fusion polypeptide (on transfected CHO-S / HEK293F cells) (rabbit; human); assay: FACS, HEK293F transfected with CD19 expression plasmid, detection with anti-mIgG-APC

stained cells, absolute [n] [1]: 975 n
stained cells, relative to total number [%] [1]: 4.6%
Ratio Q2/IgM (%) [2]: 93.2%
stained cells, absolute [n] [3]: 7290 n
stained cells, relative to total number [%] [3]: 35.9%
B1: antibody 1H2 (mouse monoclonal anti-rabbit CD19 antibody) (antibody, mouse IgG2a, kappa, V domains shown)
VH: QVQLQQSGPEVVKPGASVRMSCKASGYIFTNHYIHWMKQRPGQGLEWVGCIYPGNVNSNYNEKFKGKATLTADKSSSTAYLQLSSLTSEDSAVYFCARGGYYGSSYSWFAYWGQGTLVIVSA
VL: DIVMTQSPATLSVTPGDRVSLSCRASQSISDFLHWYQQSSHESPRLLIKYASQSISGIPSRFSGSGSGSDFTLTINSVEPEDVGVYYCQNGHSFPYTFGGGTNLEIKR
notes: Mouse IgG from hybridoma; the chains are built here from variable domain plus constant region so that no leader is included; Tested as hybridoma supernatant, and later purified and labelled with Alexa 647 or biotin; also called clone 1H2; anti-CD19 A647
